Laboratory results reported in patent US20180280504A1, “GLYCAN-INTERACTING COMPOUNDS AND METHODS OF USE” (SIAMAB THERAPEUTICS, INC., priority 2014, published 2018).
Where “and” joins values, the source holds several entries; their conditions need not be identical. Equal entries are not always repeated. Where two headings read alike, the source gives them in different places.

Legend:
[1] = Glycan array, AcSTn; assay type: binding; settings: for Glycan Array AcSTn: summary table
Experimental: (§1) Optimized glycan arrays comprise 71 chemically synthesized and well-defined glycans, most of which comprise Neu5Ac and Neu5Gc glycan pairs.
(§2) 300 ml of epoxy blocking buffer is prepared by combining 15 ml of 2 M Tris buffer (pH 8) with 0.9 ml of 16.6 M ethanolamine and 284.1 ml of distilled water. The solution was brought to a final pH of 9.0 with HCl. The solution is filtered using a […] nitrocellulose membrane. The epoxy buffer solution as well as 1 L of distilled water are pre-warmed to 50° C. Glass slides are arranged in a slide holder and quickly submerged in a staining tub with the warmed epoxy blocking buffer. Slides are incubated in the epoxy blocking buffer for 1 hour at 50° C. with periodic shaking to deactivate epoxy binding sites. Next, slides are rinsed and blocked with PBS with 1% OVA at 25° C. for one hour. Serum samples with polyclonal antibodies (1:1000) or purified monoclonal antibodies (1 ug/mL), are diluted in PBS with 1% OVA and added to the glycan array for one hour at 25° C. After extensive washing, binding of antibodies are detected by incubating glycan microarray slides with Cy3-conjugated anti-mouse IgG (Jackson Immunoresearch, West Grove, Pa.) for one hour. Slides are then washed extensively, dried and scanned with a Genepix 4000B scanner (Laser at 100%; gain at 350; 10 μm pixels). Raw data from scanned images are extracted using the Genepix software and analysis of raw data is carried out.

[2] = Glycan array, GcSTn; assay type: binding; settings: for Glycan Array GcSTn: summary table
Experimental: as §1, §2

[3] = Glycan array STn specificity and anti-STn antibody group assignment; assay type: binding; set-up: key to Group (anti-STn antibody group): Group 1: antibodies capable of binding AcSTn and GcSTn; Group 2: ability to bind STn as well as some related structures that include an O-linkage to serine or threonine; Group 3: antibodies capable of binding STn, but may also bind a broader set of related structures; Group 4: capable of binding to both AcSTn and GcSTn as well as the un-sialylated Tn antigen; settings: for Group (anti-STn antibody group): assigned from flow cytometry and glycan array analysis; for Glycan Array STn Specificity: summary table
Experimental: as §2
Based on characterization data, anti-STn antibodies developed from Group 6 and Group 8 mice were categorized by anti-STn group number. In some cases, antibodies were assigned to Group 1. Group 1 antibodies according to the invention are antibodies capable of binding AcSTn and GcSTn. Such antibodies may have the ability to associate with a wider range of STn structures. The large oval in FIG. 1A indicates the portion of STn recognized by Group 1 antibodies. Antibodies were assigned to Group 2 based on their ability to bind STn as well as some related structures that include an O-linkage to serine or threonine. The large oval in FIG. 1B indicates the portion of STn recognized by Group 2 antibodies. In some cases, Group 2 antibodies may bind to glycans comprising a sialylated galactose residue. Some Group 2 antibodies preferably bind to structures with AcSTn over structures with GcSTn. Further anti-STn antibodies were assigned to Group 3. Group 3 antibodies are antibodies capable of binding STn, but may also bind a broader set of related structures. […] The large oval in FIG. 1C indicates the portion of STn recognized by Group 3 antibodies. Finally, some anti-STn antibodies were assigned to Group 4. Group 4 antibodies are capable of binding to both AcSTn and GcSTn as well as the un-sialylated Tn antigen, and therefore have broader specificity. The large oval in FIG. 1D indicates the portion of STn recognized by Group 4 antibodies. […] Also listed in the Table is the antibody Isotype for each antibody as determined by the IsoStrip mouse monoclonal antibody isotyping kit (Roche Diagnostics GmbH, Manheim, Germany).

[4] = tested on: ST6GalNAc 1 transfected MDA-MB-231 cells (MDA-STn+); assay: Flow cytometry-based analysis of antibody binding, STn+ cells; set-up: species or system human; settings: for EC50, flow cytometry binding to cell-associated STn: ST6GalNAc 1 transfected MDA-MB-231 cells, APC anti-mouse IgG
Experimental: Flow cytometry-based analysis is carried out to elucidate the curve-dose response for binding of antibodies to cell surface antigens. For these analyses, three cell lines are employed.
MDA-MB-231 cells are human breast cancer cells. They are grown in Earle's Minimum Essential Medium supplemented with 10% fetal calf serum (FCS), 100 μg/ml penicillin, 100 UI/ml streptomycin and 45 μg/ml gentamycin. MCF-7 cells are also human breast cancer cells and are grown under the same conditions as MDA-MB-231 cells. Stably transfected versions of MDA-MB-231 and MCF-7 cells (clone TAH3.P10 for MDA-MB-231 cells and clone A12.1 for MCF-7 cells) that over express GalNAc α2,6-sialyltransferase (ST6GalNAc 1,) are also cultured under the same conditions with the exception of an added 1 mg/ml of G418 to support cells expressing the transgene. ST6GalNAc 1 is an enzme capable of sialylating GalNAc. As a result of over expression, transfected cells express high levels of Neu5Ac-STn (see Julien, S. et al., Glycoconjugate journal. 2001. 18, 883-93; the contents of which are herein incorporated by reference in their entirety). E3 cells are murine breast cancer cells. They are cultured in Dulbecco's E4 medium with 10% FCS. Stably transfected versions of E3 cells expressing high levels of Neu5Gc-STn (E3-STn) are cultured with 600 μg/ml of G418 and 200 μg/ml hygromycin. During growth and maintenance of experimental cells, trypsin is not used for cell passaging.
For analysis, cells are harvested using StemPro Accutase (Life Technologies, Carlsbad, Calif.) and washed with PBS comprising 5% FBS before pelleting by light centrifugation. Cell numbers and viability are determined by trypan blue dye exclusion analysis and cell concentrations are adjusted to 5×10^6 cells/ml in PBS with 5% FBS. 50 μl of cells are added to each well of an assay plate. Cells are combined with 50 μl solutions of antibody being analyzed or control antibodies and incubated for 1 hour at 4° C. Cells are washed and pelleted twice with PBS with 5% FBS before being treated with 100 μl of PBS with 5% FBS comprising a 1:1,500 dilution of anti-mouse IgG (Southern Biotech, Birmingham, Ala.,) conjugated to allophycocyanin (APC). Cells are incubated for 30 min at 4° C. before washing and resuspending in 200 μl of propidium iodide (PI) diluted 1:1000 in PBS with 5% FBS. Treated cells are then subjects to flow cytometry analysis and 10,000 events are acquired for each sample.

[5] = STn expressed on MDA cells, based on mean fluorescence intensity of APC, #1, #2, #3 = lots, nM, read-out: EC50 value
[6] = summary table, unit not printed (same values in nM), read-out: Flow cytometry (EC50) MDA-STn+
[7] = glycan microarray, Cy3 anti-mouse IgG

Row | EC50, flow cytometry binding to cell-associated STn [4] | EC50 [4, 6] [nM] | EC50, flow cytometry binding to cell-associated STn ([4]; listed as 2D4-1B4) [nM] | EC50 ([4]; STn expressed on MDA cells, based on mean fluorescence intensity of APC, #1, #2, #3 = lots, nM, listed as 2D4#1, read-out: EC50 value) [nM] | EC50 ([4]; STn expressed on MDA cells, based on mean fluorescence intensity of APC, #1, #2, #3 = lots, nM, listed as 2D4#2, read-out: EC50 value) [nM] | EC50, flow cytometry binding to cell-associated STn ([4]; listed as 8C11 Lot 111113) [nM] | Molecule | Glycan Array AcSTn [1] [%] | Glycan Array GcSTn [2] [%] | Group (anti-STn antibody group) [3] | Glycan Array STn Specificity [3] [%] | EC50 [4, 5] [nM] | EC50, flow cytometry binding to cell-associated STn ([4]; listed as 7G9#2) [nM] | EC50, flow cytometry binding to cell-associated STn ([4]; listed as 7G9#3) [nM] | mean fluorescence intensity, AcSTn [1, 7] | mean fluorescence intensity, GcSTn [2, 7]
1 | 3.62 nM and 5.57 nM | 5.57 |  |  |  |  | 10A5: anti-STn mouse monoclonal, IgG2c κ, from mouse #4406; VH SEQ ID NO: 6, VL SEQ ID NO: 7 (antibody, V domains shown) VH: QVQLKESGPGLVAPSQSLSITCTVSGFSLTSYGVSWVRQPPGKGLEWLGVIWGDGSTNYHSSLISRLSISKDNSKSQVFLKLNSLQTDDTATYYCARAFVYWGQGTLVTVSA VL: QIVLTQSPAIMSASPGEKVTMTCSASSSVSYIHWYQQKSGTSPKRWIYDTSKLASGVPARFSGSGSGTSYSLTISSMEAEDAATYYCQQWSSNPPMLTFGAGTKLELK | 96 | 1 | Group 2 | 97 | 5.57 |  |  |  | 
2 | 1.41 nM | 1.41 | 1.19 | 2.23 | 1.41 |  | 2D4: anti-STn mouse monoclonal, IgG2b κ, from mouse #4407; VH SEQ ID NO: 10, VL SEQ ID NO: 11 (antibody, V domains shown) VH: QVQLQESGPGLVAPSQSLSITCTVSGFSLISYGVNWVRQPPGKGLEWLGVIWGDGSTNYQSALISRLIISKDNSKSQVFLKLNSLQTDDTATYYCTKGFAYWGQGTLVTVSA VL: QIVLTQSPAIMSASPGEKVTMTCSASSSVSYMHWFQQKSGTSPKRWIYDTSKLASGVPARFSGSGSGTSYSLTISSMEAEDAATYYCQQWSSNLLTFGAGTKLELK | 88 | 1 | Group 2 | 89 |  |  |  |  | 
3 | 7.52 nM |  |  |  |  | 7.28 | 8C11: anti-STn mouse monoclonal, IgG2b κ, from mouse #4407; VH SEQ ID NO: 8, VL SEQ ID NO: 9 (antibody, V domains shown) VH: QVQLKESGPGLVAPSQSLSITCTVSGFSLTSYGVSWVRQPPGKGLEWLGVIWGDGSTNYHSALISRLIISKDNSKSQVFLKLNSLQTDDTATYYCTKGFTYWGQGTLVTVSA VL: QIVLTQSPAIMSASPGEKVTMTCSASSSVSYMHWYQQKSGTSPKRWIFDTSKLASGVPARFSGSGSGTSYSLTISSMEAEDAATYYCQQWSSNLLTFGAGTKLELK | 75 | 9 | Group 2 | 84 |  |  |  |  | 
4 | 60.35 nM | 354 |  |  |  |  | 18C7: anti-STn mouse monoclonal, IgG2c κ, from mouse #4436; VH SEQ ID NO: 4, VL SEQ ID NO: 5 (antibody, V domains shown) VH: QVTLKESGPGILQPSQTLSLTCSFSGFSLSTFGMGVGWIRQPSGKGLEWLAHIWWDDDKYYNPALKSRLTISKDTSKNQVFLKIANVDTADTATYYCARIAYYYGSERDYWGQGTTLTVSS VL: QIVLTQSPAIMSASPGEKVTMTCSASSSISYMHWYHQKPGTSPKRWIYDTSKLASGVPARFSGSGSGTSYSLTISSMEAEDAATYYCHQRSSYTFGGGTKLEIKR | 60 | 40 | Group 1 | 100 |  |  |  | about 9,000 | about 3,500

Row | Molecule | EC50, flow cytometry binding to cell-associated STn [4] | EC50 [4, 6] [nM] | EC50, flow cytometry binding to cell-associated STn ([4]; listed as 2D4-1B4) [nM] | EC50 ([4]; STn expressed on MDA cells, based on mean fluorescence intensity of APC, #1, #2, #3 = lots, nM, listed as 2D4#1, read-out: EC50 value) [nM] | EC50 ([4]; STn expressed on MDA cells, based on mean fluorescence intensity of APC, #1, #2, #3 = lots, nM, listed as 2D4#2, read-out: EC50 value) [nM] | EC50, flow cytometry binding to cell-associated STn ([4]; listed as 8C11 Lot 111113) [nM] | Glycan Array AcSTn [1] [%] | Glycan Array GcSTn [2] [%] | Group (anti-STn antibody group) [3] | Glycan Array STn Specificity [3] [%] | EC50 [4, 5] [nM] | EC50, flow cytometry binding to cell-associated STn ([4]; listed as 7G9#2) [nM] | EC50, flow cytometry binding to cell-associated STn ([4]; listed as 7G9#3) [nM] | mean fluorescence intensity, AcSTn [1, 7] | mean fluorescence intensity, GcSTn [2, 7]
5 | 7G9: anti-STn mouse monoclonal, IgG2b κ, from mouse #4407; VH SEQ ID NO: 12, VL SEQ ID NO: 9 (antibody, V domains shown) VH: QVQLKESGPGLVAPSQNLSITCTVSGFSLTSYGVNWVRQPPGKGLEWLGVIWGDGSTNYHSALISRLIISKENSKSQVFLKLNSLQTNDTATYYCTKGFVYWGQGTLVTVSA VL: QIVLTQSPAIMSASPGEKVTMTCSASSSVSYMHWYQQKSGTSPKRWIFDTSKLASGVPARFSGSGSGTSYSLTISSMEAEDAATYYCQQWSSNLLTFGAGTKLELK | 6.91 nM | 5.15 |  |  |  |  | 72 | 7 | Group 2 | 79 | 5.15 | 7.33 | 5.15 |  | 
